Columns and labels:
ICAM-1 [1] = target: T1, ICAM-1 (Homo sapiens, UniProt P05362); assay: Binding of LFA-1 or isolated I-domain transfectants to immobilized ICAM-1; format: cell-based; design: ICAM-1 was purified from human tonsil; from tissue; host or cells: human tonsil; conditions: for binding of 293T transient transfectants to immobilized ICAM-1 with activating mAb CBRLFA-1/2: CBRLFA-1/2 10 μg/ml; for binding of 293T transient transfectants to immobilized ICAM-1: no activating antibody
Procedure: Clones of the transfectants that expressed similar levels of cell surface LFA-1, as determined by flow cytometry using monoclonal antibody TS2/4 (FIG. 3B), were tested for their ability to bind to immobilized ICAM-1, as previously described (Lu, C and Springer, T A (1997) J Immunol 159:268-278).
Briefly, ICAM-1 was purified from human tonsil, and coated to 96-well plates as described previously (Lu, C and Springer T A, (1997) J Immunol 159:268-278). Cells were labeled with a florescence dye 2′,7′-bis-(carboxyethyl)-5(and-6)-carboxyfluorescein, acetoxymethyl ester (BCECF-AM), and resuspended to 1×10^6/ml in L15/FBS. 50 μl cell suspension was mixed in ICAM-1 coated wells with an equal volume of L15/FBS in the absence or presence of monoclonal antibody (CBRLFA-1/2, 10 μg/ml). Monoclonal antibodies were used at final concentration of 1:20 hybridoma supernatant, 1:200 ascites, or μg/ml purified IgG. For testing the effect of divalent cations, BCECF-AM-labeled cells were washed 2× with TS buffer, pH7.5 (20 mM Tris, pH 7.5, 150 mMNaCl) containing 5 mM EDTA, followed by 2 washes with TS buffer, pH7.5. Cells were then resuspended to 5×10^5/ml in the TS buffer, pH7.5 supplemented with 1 mM MgCl2/CaCl2, MgCl2, MnCl2 mM EDTA, and 100 μl cell suspension was added to ICAM-1 coated wells. After incubation at 37° C. for 30 minutes, unbound cells were washed off on a Microplate Autowasher (Bio-Tek Instruments, Winooski, Vt.). The fluorescence content of total input cells and the bound cells in each well was quantitated on a Fluorescent Concentration Analyzer (IDEXX, Westbrook, Me.). The bound cells were expressed as a percentage of total input cells per sample well.
For generating stable K562 transfectants that express the I-domain on the surface, 20 μg of SspI-linearized pcDNA3.1/Hygro(+) containing the sequences encoding the I domain and the PDGFR transmembrane domain was used to transfect K562 cells by electroporation as described above. Transfectants were selected for resistance to 100 μg/ml hygromycin B, and were further subcloned by cell sorting and limiting dilution; clones that expressed similar levels of surface wild-type and mutant I domain-PDGFR were selected for functional studies. Stable cell lines were maintained in RPMI medium 1640 supplemented with 10% FBS and 100 μg/ml hygromycin B. Cell surface expression of the isolated I-domains was determined by flow cytometry using antibody TS1/22 to the I-domain (FIG. 7). Two clones from each transfectant were selected and tested for binding to immobilized ICAM-1, and similar results were obtained with each of the two clones (FIG. 8A).
If the constitutive ligand binding activity of mutant K287C/K294C is due to the formation of a disulfide bond between the introduced C287 and C294, disruption of the disulfide bond with a reducing agent would abolish ligand binding ability of the mutant. Accordingly, the transfectants were treated with the reducing agent DTT (10 mM) in L15/FBS containing Mg^2+ and Ca^2+, and the ability of transfectants to bind to ICAM-1 was assessed.
Furthermore, the effect of divalent cations on ligand binding of the isolated I-domains expressed on the surface of K562 transfectants was tested. The binding reactions were performed in HEPES/NaCl/glucose (20 mM HEPES, pH 7.5, 140 mM NaCl, 2 mg/ml glucose) supplemented with 1 mM […], 1 mM Mg^2+, or 1 mM EDTA.
Target sequence in this assay (P05362 28-532): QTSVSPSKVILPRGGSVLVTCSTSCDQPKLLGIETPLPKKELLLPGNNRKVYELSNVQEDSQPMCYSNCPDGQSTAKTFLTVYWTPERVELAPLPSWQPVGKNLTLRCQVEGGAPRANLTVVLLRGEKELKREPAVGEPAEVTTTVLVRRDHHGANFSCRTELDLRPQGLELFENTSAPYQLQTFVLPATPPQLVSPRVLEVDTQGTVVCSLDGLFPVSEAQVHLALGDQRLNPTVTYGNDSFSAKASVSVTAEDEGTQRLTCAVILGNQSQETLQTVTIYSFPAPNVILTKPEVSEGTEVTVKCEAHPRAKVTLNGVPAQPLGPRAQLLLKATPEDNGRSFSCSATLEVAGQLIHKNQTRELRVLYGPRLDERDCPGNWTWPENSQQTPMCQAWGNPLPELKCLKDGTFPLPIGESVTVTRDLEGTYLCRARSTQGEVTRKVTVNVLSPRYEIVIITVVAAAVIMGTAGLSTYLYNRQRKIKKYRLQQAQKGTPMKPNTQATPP

ICAM-1 [2] = target: T1, ICAM-1; assay: BIAcore binding of soluble αL I-domains to ICAM-1; conditions: for Kon, interaction of αL I-domains with ICAM-1: calculated by Koff/KD; for Koff, interaction of αL I-domains with ICAM-1: curve fitting of dissociation phase, 1:1 binding model
Procedure: Briefly, recombinant mutant αL I-domain stabilized in the open conformation (K287C/K294C), or recombinant wild-type αL I-domain from amino acid residue G128 to Y307, were cloned into pET11b (Novagen) and expressed in E. coli induced with 1 mM IPTG for 4 hours. The recombinant proteins were purified from inclusion bodies by solubilization of inclusion bodies in 6M guanidine HCl and were refolded by dilution in the presence of 0.1 mM Cu^2+/phenanthrolin to enhance formation of disulfide bonds. Protein was concentrated by ammonium sulfate precipitation, dialyzed, and purified over a monoQ ion-exchange column. […] The recombinant proteins were then purified by gel filtration and concentrated by Centriprep. For BIAcore™ analysis, recombinant ICAM-1, ICAM-2 and ICAM-3 Fc chimeras were immobilized on the BIAcore™ sensor chip by an amine-coupling method. Recombinant αL I-domains were flowed in, and BIAcore™ assays were performed with Tris-buffered saline supplemented with 1 mM MgCl2 or 2 mM EDTA, at a flow rate of 10 μl/minute at 25° C.
Target sequence in this assay (P05362 28-480 limits assumed): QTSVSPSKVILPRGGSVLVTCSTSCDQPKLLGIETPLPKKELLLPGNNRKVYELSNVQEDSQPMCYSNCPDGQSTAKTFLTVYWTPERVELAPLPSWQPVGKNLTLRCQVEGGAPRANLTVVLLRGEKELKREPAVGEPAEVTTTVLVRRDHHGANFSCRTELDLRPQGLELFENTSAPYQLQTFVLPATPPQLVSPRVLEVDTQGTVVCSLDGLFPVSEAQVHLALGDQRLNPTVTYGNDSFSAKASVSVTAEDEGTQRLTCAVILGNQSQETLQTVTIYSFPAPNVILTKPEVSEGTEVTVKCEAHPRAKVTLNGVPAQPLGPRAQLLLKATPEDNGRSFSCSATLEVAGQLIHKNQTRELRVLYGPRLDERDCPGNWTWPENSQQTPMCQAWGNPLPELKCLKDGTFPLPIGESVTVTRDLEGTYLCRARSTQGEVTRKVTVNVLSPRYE

| binding of 293T transient transfectants to immobilized ICAM-1 with activating mAb CBRLFA-1/2 (ICAM-1 [1]) | binding of 293T transient transfectants to immobilized ICAM-1 (ICAM-1 [1]) | Kon, interaction of αL I-domains with ICAM-1 (ICAM-1 [2]) [M⁻¹ s⁻¹] | Koff, interaction of αL I-domains with ICAM-1 (ICAM-1 [2]) [s⁻¹] | also measured | Molecule |
| --- | --- | --- | --- | --- | --- |
| not able to activate binding | did not bind | 2110 | 2.84 | binding of K562 cells expressing isolated I-domains to immobilized ICAM-1 (ICAM-1 [1]; I-domain on cell surface via PDGFR transmembrane domain): did not bind; effect of Mn2+ or Mg2+ on ligand binding of isolated I-domains (ICAM-1 [1]; K562, 1 mM Mn2+ or Mg2+): did not activate ligand binding; binding of K562 stable transfectants to immobilized ICAM-1 with activating mAb CBRLFA-1/2 (ICAM-1 [1]; K562, CBRLFA-1/2 10 μg/ml): did not binding to ICAM-1; effect of Mn2+ and Mg2+ on binding of K562 transfectants to ICAM-1 (ICAM-1 [1]; K562, intact LFA-1, Mn2+ / Mg2+): did not increase binding; binding of K562 stable transfectants to immobilized ICAM-1 (ICAM-1 [1]; K562, no activating antibody): did not binding to ICAM-1; effect of DTT treatment on binding to ICAM-1 (ICAM-1 [1]; K562 transfectants, DTT 10 mM in L15/FBS): did not affect binding | L289C/K294C: low affinity closed αL I-domain mutant, cysteines for L289 and K294 (protein) GNVDLVFLFDGSMSLQPDEFQKILDFMKDVMKKLSNTSYQFAAVQFSTSYKTEFDFSDYVKRKDPDALLKHVKHMLLLTNTFGAINYVATEVFREELGARPDATKVLIIITDGEATDSGNIDAAKDIIRYIIGIGKHFQTKESQETLHKFASKPASEFVKICDTFECLKDLFTELQKKIY |
|  |  | 153000 | 0.67 |  | K160C/F299C: intermediate-affinity open αL I-domain mutant, cysteines for K160 and F299 (protein) GNVDLVFLFDGSMSLQPDEFQKILDFMKDVMKCLSNTSYQFAAVQFSTSYKTEFDFSDYVKRKDPDALLKHVKHMLLLTNTFGAINYVATEVFREELGARPDATKVLIIITDGEATDSGNIDAAKDIIRYIIGIGKHFQTKESQETLHKFASKPASEFVKILDTFEKLKDLCTELQKKIY |
|  |  | 136000 | 0.513 |  | L161C/F299C: intermediate-affinity open αL I-domain mutant, cysteines for L161 and F299 (protein) GNVDLVFLFDGSMSLQPDEFQKILDFMKDVMKKCSNTSYQFAAVQFSTSYKTEFDFSDYVKRKDPDALLKHVKHMLLLTNTFGAINYVATEVFREELGARPDATKVLIIITDGEATDSGNIDAAKDIIRYIIGIGKHFQTKESQETLHKFASKPASEFVKILDTFEKLKDLCTELQKKIY |
|  |  | 135000 | 0.65 |  | L161C/T300C: intermediate-affinity open αL I-domain mutant, cysteines for L161 and T300 (protein) GNVDLVFLFDGSMSLQPDEFQKILDFMKDVMKKCSNTSYQFAAVQFSTSYKTEFDFSDYVKRKDPDALLKHVKHMLLLTNTFGAINYVATEVFREELGARPDATKVLIIITDGEATDSGNIDAAKDIIRYIIGIGKHFQTKESQETLHKFASKPASEFVKILDTFEKLKDLFCELQKKIY |
|  |  | 128000 | 0.0459 | affinity compared with high-affinity open αL I-domain K287C/K294C (times lower) (ICAM-1 [2]; ICAM-1, soluble I-domains): nearly comparable | E284C/E301C: high affinity open αL I-domain mutant, E284 and E301 replaced by cysteines (protein) GNVDLVFLFDGSMSLQPDEFQKILDFMKDVMKKLSNTSYQFAAVQFSTSYKTEFDFSDYVKRKDPDALLKHVKHMLLLTNTFGAINYVATEVFREELGARPDATKVLIIITDGEATDSGNIDAAKDIIRYIIGIGKHFQTKESQETLHKFASKPASCFVKILDTFEKLKDLFTCLQKKIY |
| increased | reduced binding |  |  |  | K287C: single cysteine substitution mutant of LFA-1 αL (protein, UniProt P20701 26-1170, looked up, variant K287C) Integrin alpha-L: YNLDVRGARSFSPPRAGRHFGYRVLQVGNGVIVGAPGEGNSTGSLYQCQSGTGHCLPVTLRGSNYTSKYLGMTLATDPTDGSILACDPGLSRTCDQNTYLSGLCYLFRQNLQGPMLQGRPGFQECIKGNVDLVFLFDGSMSLQPDEFQKILDFMKDVMKKLSNTSYQFAAVQFSTSYKTEFDFSDYVKRKDPDALLKHVKHMLLLTNTFGAINYVATEVFREELGARPDATKVLIIITDGEATDSGNIDAAKDIIRYIIGIGKHFQTKESQETLHKFASKPASEFVCILDTFEKLKDLFTELQKKIYVIEGTSKQDLTSFNMELSSSGISADLSRGHAVVGAVGAKDWAGGFLDLKADLQDDTFIGNEPLTPEVRAGYLGYTVTWLPSRQKTSLLASGAPRYQHMGRVLLFQEPQGGGHWSQVQTIHGTQIGSYFGGELCGVDVDQDGETELLLIGAPLFYGEQRGGRVFIYQRRQLGFEEVSELQGDPGYPLGRFGEAITALTDINGDGLVDVAVGAPLEEQGAVYIFNGRHGGLSPQPSQRIEGTQVLSGIQWFGRSIHGVKDLEGDGLADVAVGAESQMIVLSSRPVVDMVTLMSFSPAEIPVHEVECSYSTSNKMKEGVNITICFQIKSLIPQFQGRLVANLTYTLQLDGHRTRRRGLFPGGRHELRRNIAVTTSMSCTDFSFHFPVCVQDLISPINVSLNFSLWEEEGTPRDQRAQGKDIPPILRPSLHSETWEIPFEKNCGEDKKCEANLRVSFSPARSRALRLTAFASLSVELSLSNLEEDAYWVQLDLHFPPGLSFRKVEMLKPHSQIPVSCEELPEESRLLSRALSCNVSSPIFKAGHSVALQMMFNTLVNSSWGDSVELHANVTCNNEDSDLLEDNSATTIIPILYPINILIQDQEDSTLYVSFTPKGPKIHQVKHMYQVRIQPSIHDHNIPTLEAVVGVPQPPSEGPITHQWSVQMEPPVPCHYEDLERLPDAAEPCLPGALFRCPVVFRQEILVQVIGTLELVGEIEASSMFSLCSSLSISFNSSKHFHLYGSNASLAQVVMKVDVVYEKQMLYLYVLSGIGGLLLLLLIFIVLYKVGFFKRNLKEKMEAGRGVPNGIPAEDSEQLASGQEAGDPGCLKPLHEKDSESGGGKD |
